The target of assay [1] is T1, mouse CTLA4-Fc (Sino Biological) (mouse, UniProt P09793 36-162, limits assumed).
T1 construct: Bought reagent; also called mouse CTLA-4 protein; recombinant CTLA-4; not shown: Fc part of the bought fusion protein; not described
In words: ligand-blocking ELISA: mouse CTLA4-Fc coated, antibody titrated, His-tagged mouse CD80 added and detected with anti-His-HRP [contd.) J, panel mCD80]. A general note: In an ELISA, binding on a coated surface is turned into a signal by an enzyme label.

Assay [2] concerns the target T2, mouse CTLA-4 on transfected cells (mouse, UniProt P09793 36-223).
T2 construct: whole, on cells; also called mCTLA-4-transfected cells; mouse CTLA-4 transfected CHO cells
In words: flow cytometry on mCTLA-4-transfected cells, antibody titrated [contd.) I].

The target in assay [3] is T1, mouse CTLA4-Fc (Sino Biological). In words: ligand-blocking ELISA: mouse CTLA4-Fc coated, antibody titrated, His-tagged mouse CD86 added and detected with anti-His-HRP [contd.) J, panel mCD86].
Assay [4] has the same target. Description: ELISA, luminescence: mouse CTLA4-Fc coated, 5-B07 mIgG2a titrated in 3-fold steps [contd.) E].
Another assay concerns the target T3, cmCTLA-4 (Macaca fascicularis, UniProt G7PL88).
T3 construct: recombinant protein coated for ELISA; also called cynomolgus CTLA-4; cynomolgus monkey CTLA-4
Description: ELISA, luminescence: antigen coated, antibody titrated [contd.) E].

In assay [5] the target is T4, human CTLA-4 protein (Sino Biological), soluble (human, UniProt P16410 36-162, limits assumed).
T4 construct: Analyte of the Biacore experiment; also called soluble human CTLA-4
Description: SPR (Biacore): antibody at 5 nM captured on immobilized anti-human Fc, human CTLA-4 protein injected at rising concentrations [contd.) C, upper panel].

Assay [6] addresses T5, human CTLA4-Fc (R&D Systems) (human, UniProt P16410 36-161).
T5 construct: extracellular domain; Bought reagent; also called rhCTLA-4-Fc; hCTLA-4; not shown: Fc part of the bought fusion protein; not described
In words: by the legend: binding to immobilized recombinant hCTLA-4 protein as in FIG. 1E; the y axis reads 'IgG binding (geomean; x10^3)' [contd.) G].

For assay [7], the target named is T5, human CTLA4-Fc (R&D Systems). Description: ligand-blocking ELISA: human CTLA4-Fc coated, antibody titrated, His-tagged rhCD80 added and detected with anti-His-HRP [contd.) G, panel hCD80].
Assay [8] has the same target. Description: by the legend: binding to immobilized recombinant hCTLA-4 protein as in FIG. 1E; 4-E03 purified from BT-001-infected MIA PaCa-2 cells; the y axis reads 'IgG binding (geomean; x10^3)' [contd.) G].
Assay [9] concerns the target T6, human CD28-Fc (R&D Systems) (human, UniProt P10747 19-152).
T6 construct: Bought reagent; also called human homologue CD28; not shown: Fc part of the bought fusion protein; not described
In words: ELISA, luminescence: antigen coated, antibody titrated [contd.) E].

Assay [10] deals with T1, mouse CTLA4-Fc (Sino Biological). The description is as above.
Assay [11] concerns the target T5, human CTLA4-Fc (R&D Systems). Described as above.
For assay [12], the target named is T4, human CTLA-4 protein (Sino Biological), …. In words: SPR (Biacore 3000); mAb captured by immobilised anti-human Fc, soluble human CTLA-4 injected (1.6 to 50 nM).
For assay [13], the target named is T5, human CTLA4-Fc (R&D Systems). In words: ligand-blocking ELISA: human CTLA4-Fc coated, antibody titrated, His-tagged rhCD86 added and detected with anti-His-HRP [contd.) G, panel hCD86].

Positions count from the first letter of the chain named.

T5 sequence (P16410 36-161): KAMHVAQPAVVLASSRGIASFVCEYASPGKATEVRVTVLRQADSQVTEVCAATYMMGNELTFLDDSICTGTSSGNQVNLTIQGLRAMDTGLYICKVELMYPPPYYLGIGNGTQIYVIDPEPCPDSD
T4 sequence (P16410 36-162 limits assumed): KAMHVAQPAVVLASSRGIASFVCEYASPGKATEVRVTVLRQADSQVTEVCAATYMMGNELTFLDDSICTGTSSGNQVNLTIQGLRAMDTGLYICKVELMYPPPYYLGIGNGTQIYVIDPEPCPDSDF
T3 sequence (G7PL88 entry or part of it): as the sequence (P16410 36-161) above, with S14N, I18T, L106M counted along it

B1: 5-B07 mIgG2a (anti-mouse CTLA-4, mouse IgG2a) (antibody, V domains shown)
VH: EVQLLESGGGLVQPGGSLRLSCAASGFTFSSYSMNWVRQAPGKGLEWVSAISGSGGSTYYADSVKGRFTISRDNSKNTLYLQMNSLRAEDTAVYYCARDRVEMNQWLADWGQGTLVTVSS
VL: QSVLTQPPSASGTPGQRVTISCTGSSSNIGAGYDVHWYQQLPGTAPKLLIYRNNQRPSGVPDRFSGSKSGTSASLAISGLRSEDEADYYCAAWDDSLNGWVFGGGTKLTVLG
notes: The protein in the assay lacks the signal peptide; also called anti-mCTLA-4 (5-B07); mouse surrogate antibody 5-B07 mIgG2a
Turning to B1, the “IC50 (read off the curve)” value in assay [1] was ~2 nM; in assay [3], ~0.6 nM. Also, the concentration giving a half-maximal response (EC50 (read off the curve)) – broadly, the concentration at which the effect is half-maximal – in assay [2] is ~0.8 mg/L; in assay [4], ~0.7 nM.

B2: 4-E03 hIgG1 (anti-human CTLA-4, human IgG1) (antibody, V domains shown)
VH: EVQLLESGGGLVQPGGSLRLSCAASGFTFSDYYMSWVRQAPGKGLEWVSGISWSSRDKGYADSVKGRFTISRDNSKNTLYLQMNSLRAEDTAVYYCTTDLARYWGQGTLVTVSS
VL: QSVLTQPPSASGTPGQRVTISCTGSSSNIGAGYDVHWYQQLPGTAPKLLIYGNDNRPSGVPDRFSGSKSGTSASLAISGLRSEDEADYYCAVWDDSLNGVVFGGGTKLTVLG
notes: Human IgG1 lambda, recombinant (HEK 293 EBNA); also called 4-E03 IgG1; anti-hCTLA-4 (4-E03)
With B2, the concentration giving a half-maximal response (EC50 (read off the curve)) was ~0.3 nM with cmCTLA-4, ~6 nM in [6], ~4 nM in [8] and ~0.3 nM in assay [11]. For the same molecule, the figures for the dissociation constant (Kd) in assay [5] and in assay [12] were 0.4 nM and 0.6 nM, respectively. The “IC50 (read off the curve)” value in [7] was ~1 nM; in [13], ~0.4 nM. Further, the binding result in assay [9] is reported as “no binding (tested: about 20 nM)”; in [10] it was “binds”.

B3: 2-C06 (anti-human CTLA-4 antibody clone) (antibody, human IgG1, V domains shown)
VH: EVQLLESGGGLVQPGGSLRLSCAASGFTFSSYAMSWVRQAPGKGLEWVSGISGSGGYIHYADSVKGRFTISRDNSKNTLYLQMNSLRAEDTAVYYCATYSSGLHDAFDIWGQGTLVTVSS
VL: B2 VL with G52D, D54N, N55K, V92A, V100W
notes: Tested as human IgG1 (lambda light chain)
Turning to B3, the results for the “IC50 (read off the curve)” value in assay [7] and in [13] were ~1 nM and ~0.4 nM, respectively.

B4: ipilimumab (antibody, V domains shown)
VH: QVQLVESGGGVVQPGRSLRLSCAASGFTFSSYTMHWVRQAPGKGLEWVTFISYDGNNKYYADSVKGRFTISRDNSKNTLYLQMNSLRAEDTAIYYCARTGWLGPFDYWGQGTLVTVSS
VL: not shown
Regarding B4, the “EC50 (read off the curve)” value with cmCTLA-4 is ~0.2 nM.

The values above are taken from patent US20240374719A1 (BIOINVENT INTERNATIONAL, published 2024).
